B1: Macrophage colony-stimulating factor 1 (Homo sapiens), P09603 (parent)
chain: MTAPGAAGRCPPTTWLGSLLLLVCLLASRSITEEVSEYCSHMIGSGHLQSLQRLIDSQMETSCQITFEFVDQEQLKDPVCYLKKAFLLVQDIMEDTMRFRDNTPNAIAIVQLQELSLRLKSCFTKDYEEHDKACVRTFYETPLQLLEKVKNVFNETKNLLDKDWNIFSKNCNNSFAECSSQDVVTKPDCNCLYPKAIPSSDPASVSPHQPLAPSMAPVAGLTWEDSEGTEGSSLLPGEQPLHTVDPGSAKQRPPRSTCQSFEPPETPVVKDSTIGGSPQPRPSVGAFNPGMEDILDSAMGTNWVPEEASGEASEIPVPQGTELSPSRPGGGSMQTEPARPSNFLSASSPLPASAKGQQPADVTGTALPRVGPVRPTGQDWNHTPQKTDHPSALLRDPPEPGSPRISSLRPQGLSNPSTLSAQPQLSRSHSSGSVLPLGELEGRRSTRDRRSPAEPEGGPASEGAARPLPRFNSVPLTDTGHERQSEGSFSPQLQESVFHLLVPSVILVLLAVGGLLFYRWRRRSHQEPQRADSPLEQPEGSPLTQDDRQVELPV
B2: Secreted protein BARF1 (Epstein-Barr virus (strain B95-8) (HHV-4)), P03228 (parent)
chain: MARFIAQLLLLASCVAAGQAVTAFLGERVTLTSYWRRVSLGPEIEVSWFKLGPGEEQVLIGRMHHDVIFIEWPFRGFFDIHRSANTFFLVVTAANISHDGNYLCRMKLGETEVTKQEHLSVVKPLTLSVHSERSQFPDFSVLTVTCTVNAFPHPHVQWLMPEGVEPAPTAANGGVMKEKDGSLSVAVDLSLPKPWHLPVTCVGKNDKEEAHGVYVSGYLSQ
partner: B1 chain

Variants of: B1
Details: with csf1r_human CSF1R

Variant | effect of a mutation on the interaction
H41A;H47A;Q90A;D91A | decreasing interaction strength

Variants of: B2
Details: with csf1_human CSF1, P09603

Variant | effect of a mutation on the interaction
Y34A;R36A;R37A;V38A;S39A;R82A;S83A;N85A;T86A | decreasing interaction strength
Y34A;R36A;R37A;V38A;S39A | decreasing interaction strength
